# According to PMC11312917:
# What was measured:
# [1] = molecular target: isolated LIM domain of Pdlim5 fused to a Golgi localization sequence; experiment: Golgi co-relocalization assay (immunofluorescence, Pearson's correlation coefficient); details: HT-22 cells; co-expression of GLS-LIM with isolated PDZ 4xMut; parent: est. 0.88; read off a plot
# [2] = molecular target: isolated PDZ domain of Pdlim5 fused to a Golgi localization sequence (UniProt Q96HC4); experiment: as above; details: HT-22 cells; co-expression of GLS-PDZ with isolated LIM 4xMut; parent: est. 0.84; read off a plot
# Abl1 SH2 domain = Abl1 SH2 domain (UniProt P00519); experiment: GST-domain microarray probed with biotinylated peptide; details: reference: unphosphorylated peptide; sites Y251
# Yes SH2 domain = Yes SH2 domain (UniProt P07947); experiment: as above; details: reference: unphosphorylated peptide; sites Y251
# Abl2 SH2 domain = Abl2 SH2 domain (UniProt P42684); experiment: as above; details: reference: unphosphorylated peptide; sites Y251
# Nck2 SH2 domain = Nck2 SH2 domain (UniProt O43639); experiment: as above; details: reference: unphosphorylated peptide; sites Y251
# Fyn SH2 domain = Fyn SH2 domain (UniProt P06241); experiment: as above; details: reference: unphosphorylated peptide; sites Y251
# UniProt Q96HC4, sequence (Q96HC4 2-85): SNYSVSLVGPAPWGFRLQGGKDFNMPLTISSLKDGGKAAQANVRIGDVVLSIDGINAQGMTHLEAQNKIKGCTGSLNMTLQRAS
substance,measurement,setting,value
isolated PDZ domain of Pdlim5 (not fused to GLS) (from UniProt Q96HC4) P13G; R17A; K34G; K71A,other: Pearson corr. coef. (r),[1],0.08
isolated LIM domain of Pdlim5 (not fused to GLS) C541G; F543A; T562A; C570A,other: Pearson corr. coef. (r),[2],0.05
Pdlim5 242-261 (from UniProt Q96HC4) pY251 peptide,binding against the reference,Abl1 SH2 domain,stronger
same,binding against the reference,Yes SH2 domain,stronger
same,binding against the reference,Abl2 SH2 domain,stronger
same,binding against the reference,Nck2 SH2 domain,stronger
same,binding against the reference,Fyn SH2 domain,stronger
